Data set [1] has as its system adult acute nonlymphocytic leukemia. To be noted: used as a single agent; cited from earlier work.
The test system of data set [2] is patients with relapsed, refractory, or de novo AML. Nature of the data set: Phase 1/2 study combining gemtuzumab ozogamicin with cytarabine and daunorubicin (Example 1). The conditions noted are these: in the triple combination.
Method: The maximum tolerated dose was determined to be cytarabine 100 mg/m^2/day by continuous infusion on days 1 through 7, daunorubicin 45 mg/m^2 by intravenous bolus on days 1 through 3, and gemtuzumab ozogamicin 6 mg/m^2 by 2-hour infusion on day 4.
A detailed safety and efficacy evaluation was performed on the first 19 patients treated with this combination induction regimen and subsequently followed for at least 28 days. There were sixteen men and three women enrolled with a median age of 46 years (range, 20 to 60). One, ten, and three patients were categorized in favorable-, intermediate- and poor-risk cytogenetic groups, respectively. Cytogenetic analysis was not available for five patients.
For a further data set, the system named is patients with AML. The conditions noted are these: cited from earlier work.
The subject of data set [3] is AML patients <60 years of age. The conditions noted are these: cited from earlier work.
In the next data set the test system is AML patients. In words: UK safety study combining gemtuzumab ozogamicin with intensive chemotherapy before the MRC AML15 trial (Example 2). Format: in vivo, human. The method, then: The feasibility of combining gemtuzumab ozogamicin with intensive chemotherapy for induction and/or consolidation was evaluated in 67 patients in a safety study in the United Kingdom prior to the start of the Medical Research […] AML15 trial. The aim was to combine gemtuzumab ozogamicin with chemotherapy planned in the trial, (DAT; Daunorubicin, AraC, Thioguanine, or DA; Daunorubicin AraC; or FLAG-IDA; Fludarabine, AraC, G-CSF, Idarubicin) as course 1. Course 1 was given using gemtuzumab ozogamicin in an amount of 3 mg/m^2 on day 1 of chemotherapy in 55 patients. Thirty-three patients received gemtuzumab ozogamicin with DAT. Eight patients received gemtuzumab ozogamicin with DA. Fourteen patients received gemtuzumab ozogamicin with FLAG-Ida. Of the 55 patients treated, 41 […] entered complete remission with course 1 broken down as follows: […] DAT=26/32; (2) DA=7/8; and (3) FLAG-Ida=8/8. Prior experience in a separate trial designated MRC AML12 where 720 patients were treated with H-DAT alone in course 1, 64% of those patients achieved complete remission. In the present study, the median time to ANC recovery (1×10^9/l) was 27 days (range 9-54) and platelets >100×10^9/l was 30 (range 21-48) which is within the mean+ISD of the 720 patients treated with H-DAT alone in the MRC AML12 trial. Non-hemopoietic toxicity was confined to the liver. Overall the maximum toxicity was Grade 1=5 patients, Grade 2=22 patients, Grade 3=13 patients and Grade 4=10 patients. Of the Grade 3 and 4 toxicities, 7 were felt to be definitely associated with gemtuzumab ozogamicin therapy. A possible contributory factor was the inclusion of Thioguanine. Of the 39 recipients where Thioguanine was included in the schedules, 22 developed Grade 3 or 4 liver toxicity compared with 1 for 16 recipients of non-Thioguanine schedules. […]
The overall survival of all patients receiving gemtuzumab ozogamicin in a dose of 3 mg/m^2 with course 1 at 6 months is 73% and at 12 months is 68%. For the patient receiving non-Thioguanine induction with 3 mg/m^2 of gemtuzumab ozogamicin, the 6 month survival is 91%.

Data set [4] deals with patients with poor prognosis AML. To be noted: refractory AML; single dose GO 9 mg/m^2 three days prior to first pulse of chemotherapy; cited from earlier work.
[5] abbreviates: GO 3 mg/m^2 with course 1 chemotherapy.
Setting [6] is: all patients receiving GO 3 mg/m^2 with course 1.

Counter-ions that a name gives are not always drawn. A value given as a limit tells only on which side of the number the result lay.

This is an account of results in US7727968B2, “Combination therapy for the treatment of acute leukemia and myelodysplastic syndrome” (priority 2002, dated 2010).

As to `COc1cccc2c1C(=O)c1c(O)c3c(c(O)c1C2=O)C[C@@](O)(C(C)=O)C[C@@H]3O[C@H]1C[C@H](N)[C@H](O)[C@H](C)O1` [daunorubicin hydrochloride, (1 S,3 S)-3-Acetyl-1,2,3,4,6,11-hexahydro-3,5,12-trihydroxy-10-methoxy-6,11-dioxo-1-naphthacenyl 3-amino-2,3,6-trideoxy-(alpha)-L-lyxo-hexopyranoside hydrochloride], the complete remission rates in data set [1] was 40 to 50%.
Take `Nc1ccn([C@@H]2O[C@H](CO)[C@@H](O)[C@@H]2O)c(=O)n1` [cytarabine, 4-amino-1-(beta)-D-arabinofuranosyl-2(1H)-pyrimidinone]: the maximum tolerated dose in data set [2] (continuous infusion days 1 through 7) is recorded as 100 mg/m^2/day.
`COc1cccc2c1C(=O)c1c(O)c3c(c(O)c1C2=O)C[C@@](O)(C(C)=O)C[C@@H]3O[C@H]1C[C@H](N)[C@H](O)[C@H](C)O1` [daunorubicin, (8S-cis)-8-acetyl-10-[(3-amino-2,3,6-trideoxy-(alpha)-L-lyxo-hexopyranosyl)oxy]-7,8,9,10-tetrahydro-6,8,11-trihydroxy-1-methoxy-5,12-naphthacenedione hydrochloride]: the maximum tolerated dose in data set [2] (intravenous bolus days 1 through 3) was determined as 45 mg/m^2.
For “gemtuzumab ozogamicin: recombinant humanized IgG4, kappa anti-CD33 antibody conjugated with N-acetyl-gamma calicheamicin via a bifunctional linker”, the “increased risk of developing significant hepatotoxicity” value with patients with AML (patients who did not undergo stem cell transplantation) is given as no more than 10%. For the same compound, in the data set with patients with AML (patients with relapsed AML), the response rate was less than 40%. Also, the liver toxicity result in data set [3] (GO 6 mg/m^2 dose with H-DAT or S-DAT) is “increased liver toxicity”. For the same compound, the “toxicity in patients receiving GO in courses 1 and 2” value in data set [3] (with H-DAT or S-DAT induction, one patient died) is “delayed hematological recovery and VOD”. In the data set with AML patients (GO 3 mg/m^2 in course 1 and GO 3 mg/m^2 in course 3, twelve patients), the feasibility result is “appears to be feasible”. In addition, the “complete remission with course 1” value in the data set with AML patients (GO 3 mg/m^2 on day 1 of chemotherapy (DAT, DA or FLAG-Ida), 41 of 55 patients treated) came out at 85%. Also, in the data set on AML patients (setting [5]), the “Grade 3 and 4 toxicities felt to be definitely associated with gemtuzumab ozogamicin therapy” value was 7; the “maximum liver toxicity Grade 1” value came to 5 patients; the “maximum liver toxicity Grade 2” value was found to be 22 patients; the “maximum liver toxicity Grade 3” value amounted to 13 patients. Besides, in the data set on AML patients (setting [5]), the “maximum liver toxicity Grade 4” value came to 10 patients. Further, the “median time to ANC recovery (1×10^9/l)” value in the data set on AML patients (GO 3 mg/m^2 with course 1 chemotherapy, range 9-54) was determined as 27 days. In addition, the “median time to platelets >100×10^9/l” value in the data set on AML patients (GO 3 mg/m^2 with course 1 chemotherapy, range 21-48) was 30 days. In addition, the “recipients developing Grade 3 or 4 liver toxicity” value in the data set on AML patients (Thioguanine included in the schedules, 39 recipients) stood at 22. Moreover, in the data set on AML patients (setting [6]), the “overall survival at 6 months” value came to 73% and the “overall survival at 12 months” value worked out at 68%. The 6 month survival in the data set with AML patients (non-Thioguanine induction with GO 3 mg/m^2) stood at 91%. For the same compound, in the data set with AML patients (non-Thioguanine schedules, 16 recipients), the “recipients developing Grade 3 or 4 liver toxicity” value is given as 1. The maximum tolerated dose in data set [2] (2-hour infusion on day 4) is 6 mg/m^2. The “patients entering complete remission” value in data set [4] is “two of four”.
